This passage reports IC50 results from patent US9713649 (CLEVELAND CLINIC FOUNDATION, dated 2017).

B1: E′EAmc-Ahx-dEdEdEYK(Bn-NOTA)-NH2 (Compound 4) (peptide)
peptide: {E′E-Amc}-[Ahx][dE][dE][dE]YK(NOTA(2S-Bn(4-NHCS)))-NH2
notes: Tested unlabelled; also called E′EAmc-Ahx-dGlu-dGlu-dGlu-Tyr-Lys(Bn-NOTA)-NH2
B2: ZJ-MCC-Ahx-YYYG (Compound 2) (peptide)
peptide: {ZJ-MCC}-[Ahx]YYYG
notes: Synthetic urea-ligand peptide conjugate, unlabelled
B3: E′E-Ahx-EEEYK(Bn-NOTA)-NH2 (Compound 5) (peptide)
peptide: {E′E}-[Ahx]EEEYK(NOTA(2S-Bn(4-NHCS)))-NH2
notes: Tested unlabelled; also called E′E-Ahx-Glu-Glu-Glu-Tyr-Lys(Bn-NOTA)-NH2

What is called IC50 is the point on the concentration scale where inhibition reaches its midpoint. Lower therefore signals inhibition by little substance.

Primed or numbered codes have the meaning given here. Where no end group is shown, it is not given here. [ ]: non-standard residue; d: D form. The star is where a group is joined. MCC = 4-(N-maleimidomethyl)cyclohexane-1-carbonyl, from SMCC, O=C1C=CC(=O)N1C[C@H]1CC[C@H](C(=O)*)CC1; NOTA(2S-Bn(4-NHCS)) = O=C(O)CN1CCN(CC(=O)O)C[C@H](Cc2ccc(NC(=S)*)cc2)N(CC(=O)O)CC1; Amc = N-aminomethyl cyclohexanoic acid; ZJ = urea ligand Cys-C(O)-Glu; Ahx = NCCCCCC(=O)O; E′E = Glu-urea-Glu

For this assay, the target named is T1, Prostate specific membrane antigen (PSMA) (UniProt Q04609 1-750, limits assumed).
T1 construct: whole, on cells
T1 sequence (Q04609 whole entry): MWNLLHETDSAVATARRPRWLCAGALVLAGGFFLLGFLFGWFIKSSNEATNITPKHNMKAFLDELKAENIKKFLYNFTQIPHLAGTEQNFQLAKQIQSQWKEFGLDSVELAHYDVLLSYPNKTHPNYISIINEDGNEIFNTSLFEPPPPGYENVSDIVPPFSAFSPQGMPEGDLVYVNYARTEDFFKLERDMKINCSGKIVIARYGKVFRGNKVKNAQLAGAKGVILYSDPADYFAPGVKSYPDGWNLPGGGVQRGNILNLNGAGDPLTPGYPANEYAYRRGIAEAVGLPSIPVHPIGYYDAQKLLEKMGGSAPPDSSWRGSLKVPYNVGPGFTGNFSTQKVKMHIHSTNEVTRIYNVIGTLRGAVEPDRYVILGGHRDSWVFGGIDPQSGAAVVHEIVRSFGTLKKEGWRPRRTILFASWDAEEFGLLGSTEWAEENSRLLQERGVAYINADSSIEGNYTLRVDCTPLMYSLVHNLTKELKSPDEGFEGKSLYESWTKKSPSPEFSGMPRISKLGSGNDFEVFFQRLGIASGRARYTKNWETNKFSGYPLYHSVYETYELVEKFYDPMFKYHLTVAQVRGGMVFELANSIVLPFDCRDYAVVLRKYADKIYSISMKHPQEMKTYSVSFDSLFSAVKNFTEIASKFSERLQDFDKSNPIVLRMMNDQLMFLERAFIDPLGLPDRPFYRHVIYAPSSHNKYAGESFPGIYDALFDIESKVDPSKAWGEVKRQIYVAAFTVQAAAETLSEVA
Kind of assay: competitive binding on LNCaP or PC3-PIP cells; displacement of 12 nM N-[N-[(S)-1,3-dicarboxypropyl]carbamoyl]-S-[3H]-methyl-L-cysteine, scintillation counting. On the procedure:
Briefly, LNCaP or PC3-PIP cells (5×10^5) were incubated with different concentrations of ligands in the presence of 12 nM N—[N—[(S)-1,3-dicarboxypropyl]carbamoyl]-S-[^3H]-methyl-L-cysteine in a total volume of 300 µL for 1 hour at 37° C. The mixture was centrifuged at 3,000 g for 5 min at 4° C., then washed three times with 500 µL of cold PBS. Finally, 4 mL of EcoLume™ cocktail (MP Biomedicals) was added, and radioactivity was counted by scintillation counter. The concentration required to inhibit 50% of binding was determined (IC$50$) by GraphPad Prism 3.0.
Binding affinities of new compounds to PSMA.
Take B1: the IC50 amounted to 4.6 nM.
Next, {E′E-Amc}-[Ahx][dE][dE][dE]GYGGGC-NH2 [E′EAmc-Ahx-dEdEdEGYGGGC-NH2 (Compound 3)]: 7 nM.
Consider B2, for which the IC50 was 2.5 nM.
Next, B3: 4.3 nM.
